We go through one substance from publication PMC3570535.

Usually Kd stands for the free concentration of one partner at which half of the binding sites on the other are occupied at equilibrium, for simple one-to-one binding.

This data set relates to His-DLA2 (RBP63, Cr-E2) (Chlamydomonas reinhardtii). Put plainly: filter binding. The settings on record: 5 mM Mg2+; 6.7 pM RNA; 20 mM HEPES/KOH pH 7.8, 5 mM MgCl2, 60 mM KCl, RT; 5 min (UV cross-linking, 254 nm, 1 J/cm2) or 15 min (filter binding); native fractions dialyzed to 30 mM ….

psbA 5' UTR RNA displayed a Kd of 51 nM.
